Test results from article doi:10.1101/2024.10.29.620886.

Assays:
[1] = molecular target: CR57 canonical diabody with a five amino acid linker 'GGGGS' between the VH and VL domains (human); assay: SEC
[2] = molecular target: Imdevimab diabody (human); assay: SEC

Substance	stoichiometry N [1]	stoichiometry N [2]
CR57 canonical diabody with a five amino acid linker 'GGGGS' between the VH and VL domains	2	
Imdevimab diabody		2
